In US20240029824A1 (University of Washington, published 2024):

B4: DHT05 chain B (SEQ ID NO: 88) (designed binder)
chain: SEVEKRLLEIHRRVAESHRILVEVHEALIEALRGNSEEAKEKLKELVKELEKIIKEEEELLKELEKIVEEAS

Key:
DHT01-4arm-01 chain C = molecular target: T1, DHT01-4arm-01 chain C; test: SEC and SDS-PAGE; chains of one ABC heterotrimer
T1 construct: also called DHT01-4arm-02 chain C; C2-DHT01-01 chain B
T1 chain: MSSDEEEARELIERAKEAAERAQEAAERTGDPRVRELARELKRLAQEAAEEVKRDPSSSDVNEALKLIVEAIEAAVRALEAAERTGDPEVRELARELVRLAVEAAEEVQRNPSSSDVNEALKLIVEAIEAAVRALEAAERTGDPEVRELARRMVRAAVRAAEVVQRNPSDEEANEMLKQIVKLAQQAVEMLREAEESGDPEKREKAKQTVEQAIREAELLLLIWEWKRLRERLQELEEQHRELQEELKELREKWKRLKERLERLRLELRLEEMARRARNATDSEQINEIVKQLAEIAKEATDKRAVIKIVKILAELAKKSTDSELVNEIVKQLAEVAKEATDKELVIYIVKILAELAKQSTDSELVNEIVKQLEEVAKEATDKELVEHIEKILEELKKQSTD

[1] = molecular target: B4; test: SEC and SAXS; chains of one ABC heterotrimer
[2] = molecular target: T2, DHT05_3arm_A62/B71/C62 chain B; test: SEC and SAXS; chains of one ABC heterotrimer
T2 chain: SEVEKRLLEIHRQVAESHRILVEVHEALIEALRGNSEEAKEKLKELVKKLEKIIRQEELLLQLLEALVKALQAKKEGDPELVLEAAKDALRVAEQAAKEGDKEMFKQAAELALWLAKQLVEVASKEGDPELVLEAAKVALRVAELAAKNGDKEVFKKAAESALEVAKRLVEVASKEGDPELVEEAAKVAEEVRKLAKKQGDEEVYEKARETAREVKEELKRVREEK

[3] = molecular target: T3, DHT05_3arm_A62/B71/C62 chain C; test: SEC and SAXS; chains of one ABC heterotrimer
T3 chain: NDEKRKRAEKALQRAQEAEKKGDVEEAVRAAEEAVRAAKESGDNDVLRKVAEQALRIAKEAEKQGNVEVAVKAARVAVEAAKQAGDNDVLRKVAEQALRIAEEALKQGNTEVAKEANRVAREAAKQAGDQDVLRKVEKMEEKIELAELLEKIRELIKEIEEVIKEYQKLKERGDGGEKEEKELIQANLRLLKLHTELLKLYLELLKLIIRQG

[4] = molecular target: T4, DHT05 chain C (SEQ ID NO: 89); test: SEC and SAXS; chains of one ABC heterotrimer
T4 chain: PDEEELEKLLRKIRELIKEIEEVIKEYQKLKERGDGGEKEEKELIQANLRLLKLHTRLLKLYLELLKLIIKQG

[5] = molecular target: T5, DHT03_3arm_A21/B21/C62 chain C; test: individually purified chains mixed 1:1:1, heat annealed, SEC
T5 chain: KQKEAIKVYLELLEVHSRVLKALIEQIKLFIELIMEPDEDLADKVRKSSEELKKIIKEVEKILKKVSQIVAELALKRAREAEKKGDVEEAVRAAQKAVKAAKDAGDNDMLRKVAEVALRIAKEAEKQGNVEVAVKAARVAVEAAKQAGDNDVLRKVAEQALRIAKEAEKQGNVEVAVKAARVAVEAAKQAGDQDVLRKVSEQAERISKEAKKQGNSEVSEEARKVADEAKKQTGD
Description: (§1) To test this idea, an equimolar amount of individually purified A, B, and C of DHT03_2arm_A21/B21/C were mixed together and run through an annealing protocol (see Methods) to allow these interfaces to reassemble in the presence of all components. A monodisperse SEC peak was observed belonging to the ABC heterotrimer state as confirmed by overlap with its SEC co-expressed tricistronic version (FIG. 3d). To explore the use of this approach for building, four different repeat protein fusions to chain C were annealed in the same manner and all four 3-arm heterotrimers were successfully reconstituted. […] The successful reconstitution of these ABC assemblies, following the independent expression and purification of each chain and explicit mixing at a 1:1:1 ratio, enables their use in conjunction with other de novo proteins to mediate the specific assembly of multi-component assemblies. Independent expression also has considerable advantages over tricistronic expression from a gene synthesis perspective as DNA becomes much more difficult and expensive to synthesize with increasing construct size.
(§2) To test whether the DHT03 components could properly assemble in the presence of other helical hairpin containing chains, as would be the case for more complex assemblies, we chose DHD131, a designed helical hairpin unit heterodimer containing buried hydrogen bond networks¹². […] We evaluated simultaneous reconstitution of DHD131 and DHT03_3arm_A21/B21/C82, since the size difference between the two constructs (if correctly assembled) should be detected by SEC. We separately expressed and individually purified the two chains of the heterodimer and the three chains of the heterotrimer, mixed them at a 1:1:1:1:1 ratio, and carried out annealing and SEC as described above.

[6] = molecular target: T6, DHT03_3arm_A21/B21/C53 chain C; test: as above
T6 chain: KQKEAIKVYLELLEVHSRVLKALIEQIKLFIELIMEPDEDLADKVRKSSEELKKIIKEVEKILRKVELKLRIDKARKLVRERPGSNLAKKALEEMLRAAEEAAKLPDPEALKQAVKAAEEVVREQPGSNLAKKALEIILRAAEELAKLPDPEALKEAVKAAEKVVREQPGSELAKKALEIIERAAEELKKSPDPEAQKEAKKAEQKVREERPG
Description: as §1, §2

[7] = molecular target: T7, DHT03_3arm_A21/B21/C59 chain C; test: as above
T7 chain: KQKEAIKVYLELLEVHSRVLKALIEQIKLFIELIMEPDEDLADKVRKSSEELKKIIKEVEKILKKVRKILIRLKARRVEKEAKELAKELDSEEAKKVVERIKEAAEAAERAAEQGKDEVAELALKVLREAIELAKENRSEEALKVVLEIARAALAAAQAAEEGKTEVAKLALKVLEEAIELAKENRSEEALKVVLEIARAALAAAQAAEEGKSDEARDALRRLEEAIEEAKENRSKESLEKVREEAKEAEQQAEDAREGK
Description: as §1, §2

[8] = molecular target: T8, DHT03_3arm_A21/B21/C82 chain C; test: as above
T8 construct: also called chain C DHR82 fusion; chain C of C3-DHT03-01-DHR82 and C4-DHT03-01-DHR82
T8 chain: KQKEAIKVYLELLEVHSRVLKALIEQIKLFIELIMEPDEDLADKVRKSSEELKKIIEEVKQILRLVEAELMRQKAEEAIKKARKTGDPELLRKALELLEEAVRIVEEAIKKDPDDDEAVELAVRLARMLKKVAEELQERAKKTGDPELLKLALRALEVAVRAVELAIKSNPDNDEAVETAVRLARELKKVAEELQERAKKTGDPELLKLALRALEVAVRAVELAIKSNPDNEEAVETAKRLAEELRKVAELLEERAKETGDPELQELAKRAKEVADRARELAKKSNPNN
Description: as §1, §2

[9] = molecular target: T9, DHT05 chain C (SEQ ID NO: 98); test: co-expression, SEC, SAXS; chains of one ABC heterotrimer
T9 chain: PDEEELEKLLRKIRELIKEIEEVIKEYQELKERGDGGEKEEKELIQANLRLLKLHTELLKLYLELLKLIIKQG

DHT01 chain C = molecular target: T10, DHT01 chain C; test: co-expression, IMAC and Strep-Tactin pull-down, SEC, native MS; chains of one ABC heterotrimer
T10 chain: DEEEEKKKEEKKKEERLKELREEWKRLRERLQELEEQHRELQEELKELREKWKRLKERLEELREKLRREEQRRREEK
Description: (§3) We obtained genes encoding 20 coiled coil designed heterotrimers (DHTs) in a tricistronic E. coli expression vector with one chain having a 6×His-tag and a second chain having Strep-tag II, expressed the proteins, and purified by immobilized metal affinity chromatography (IMAC) and Strep-Tactin pull-down. All designs were soluble and for 6 designs, all three components were observed by liquid chromatography-mass spectrometry (LC-MS) after both pull-down approaches. Of these, 5 eluted as monodisperse peaks by SEC, but only 1 design (DHT01) was an exclusive ABC heterotrimer by native mass spectrometry (nMS) and had good agreement with the design model via small angle X-ray scattering (SAXS) (FIG. 2d, Table 7).
(§4) Samples were analyzed by online buffer exchange native mass spectrometry (nMS) to evaluate sample purity and accurately determine oligomeric states⁴². Multiple instruments were used as the analyses were carried out over the duration of the protein design process. The mass spectrometers used for detection were a Q Exactive™ UHMR modified with a surface-induced dissociation device and an Exactive™ Plus EMR modified with a selection quadrupole and a surface-induced dissociation device (Thermo Fisher Scientific)⁴³. The liquid chromatography systems used for the buffer exchange include a Vanquish™ Duo UHPLC and a Dionex™ Ultimate 3000 HPLC (Thermo Fisher Scientific). A heated electrospray ionization source (HESI-II, Thermo Fisher Scientific) with a spray voltage of ˜4 kV was used for ionization. Protein samples stored in Tris buffer were injected (0.1-2 ug) onto the LC system and exchanged at a flow rate of 100-200 uL*min⁻¹ into 200 mM ammonium acetate (mobile phase) prior to ionization. Buffer exchange columns used include self-packed columns with P6 polyacrylamide gel (Bio-Rad Laboratories) and prototype buffer exchange columns provided by Thermo Fisher Scientific (Sunnyvale, CA). Instrument parameters were optimized to allow for ion transmission while minimizing unintentional ion activation. […]

DHT01 chain B = molecular target: T11, DHT01 chain B; test: as above
T11 chain: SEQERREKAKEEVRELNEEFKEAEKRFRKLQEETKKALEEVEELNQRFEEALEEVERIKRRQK
Description: as §3, §4

[10] = molecular target: T12, DHT05 chain C (SEQ ID NO: 95); test: SEC and SAXS; chains of one ABC heterotrimer
T12 chain: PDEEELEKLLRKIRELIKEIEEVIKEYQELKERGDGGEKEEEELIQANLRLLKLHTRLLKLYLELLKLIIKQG

B1: DHT01-4arm-02 chain B (designed binder)
chain: MSSDEEEARELIERAKEAAERAQEAAERTGDPRVRELARELKRLAQEAAEEVKRDPSSSDVNEALKLIVEAIEAAVRALEAAERTGDPEVRELARELVRLAVEAAEEVQRNPSSSDVNRALKLIVRAIEAAVQLLEHAEKSGDPEVRELARELVRRLVEAAEEVQRNPSDEQKNTQLRRLIAKAEVWLLNEEFKEAEKRFRKLQEETKKALEEVEELNQRFEEALEEVERIKRRQK
notes: Strep-tag II was added to the N-terminus of chain B of DHT01 arms; also called C2-DHT01-04 chain B
DHT01-4arm-01 chain C
  binding result: binds

B2: DHT05 chain A (designed binder)
chain: PEEKKEIKRTTEEVKEEFRKIQEEIKKLEEEAKKAEKGNGKEEIKELLLRLSELLARSLQLLAQQIEAIAKLIRG
[1]
  binding result: binds

B3: DHT05_3arm_A62/B71/C62 chain A (designed binder)
chain: NDEKRKRAEKALQRAQEAEKKGDVEEAVRAAQEAVRAAKESGDNDVLRKVAEQALRIAEEAEKQGNVEVAVKAARVAVEAAKQAGDNDVLRKVAEQALRIAEEAEKQGNVKVAADAVEVAVEAATQAGDQDVLRKASEQAKKVAKEAKKKGDHKVAVKATTLAVKAEFAAIQEEIKKLEEEAKKAEKGNGKEEIKELLLELSELLARSLQLLAQQIEAIAKLIRG
[2]
  binding result: binds
[3]
  binding result: binds

## B4
[4]
  binding result: binds

B5: DHT03_3arm chain B (B21, SEQ ID NO: 73) (designed binder)
chain: SEKEKVEELAQRIREQLPDTELAREAQELADEARKSDDSEALKVVYLALRIVQQLPDTELAREALELAKEAVKSTDSEQLEVVRLALEIVQLAPDTRLARAALKLAKEAVKSTDQEELKKVKAILRVASEVLKLEEEAKKSQEEVERLKQEVEKASKAGLDHEGDSRIFKKIHDVVTKQIKVILRLIAVYAELVAIIG
notes: separately expressed with an N- or C-terminal 6xHis-tag
[5]
  binding result: binds
[6]
  binding result: binds
[7]
  binding result: binds
[8]
  binding result: binds

B6: DHT05_2arm_A62/B14(2)-LHD101B14/C chain B (designed binder)
chain: SETEKRLLEIHRRVAESHRILVEVHEALIEALRGNSEEAKEKLKELVKKLEKIIREEEKLTVELAAKVAKSADDSEKVNEIVKTLAEIAKEATDKEQVIRIVKILAELAKQSTDSELVNEIVKQLAEVAKEATDKELVIYIVDILLKLAEQADDDELVEEIRKQLEEVAKEATDKELVEIIKAVIVLLVIISVVARMGVTMEIHKSGREVKVVIKGLHESQQEQLLEAVLRAAEEAGVRVRIRFKGDTVTIVVRG
[9]
  binding result: binds

B7: DHT01 chain A (designed binder)
chain: DEEEKLRESLEEQKKRVKEIEREHEEIREALKRLQESVKRQEEALRQLG
notes: one chain of the co-expressed design carried a 6xHis-tag and a second a Strep-tag II
DHT01 chain C
  binding result: binds
DHT01 chain B
  binding result: binds

B8: DHT05_2arm_A62/B14/C chain B (designed binder)
chain: SEVEKRLLEIHREVAESHRILVEVHEALIEALRGNSEEAKEKLKELVKKLEKIIKEEEELLKKLEKIVVQALAKAAKQATDSRQVNEIVKQLAEIAKEATDKRLVIEIVKILAELAKQSTDSELVNEIVKQLAEVAKEATDKELVIYIVKILAELAKQSTDSELVNEIVKQLEEVAKEATDKELVEHIEKILEELKKQSTD
[10]
  binding result: binds
